Reference: US20220396614A1 (DEUTSCHES KREBSFORSCHUNGSZENTRUM, published 2022)

Biological target: Plasmodium falciparum circumsporozoite protein (PfCSP) on Pf NF54 salivary gland sporozoites (Plasmodium falciparum (NF54))
Assay: cell-based or functional assay

B1: monoclonal antibody 2541 (antibody, V domains shown)
VH: QVQLVESGGGVVQPGRSLRLSCAASGFTFSSYGMHWVRQTTGKGLEWVAIIWHDGSKKYYADSVKGRLTISRDNSKNTLYLQMNSLRVEDTALYYCARVGDYSDFKYGAFDIWGQGTMVTVSS
VL: DIQMTQSPSTLSASVGDRVTITCRASQSISSWLAWYQQKPGKAPNLLIYKASTLESGVPSRFSGSGSGTEFTLTISSLQPDDFATYYCQQYNSYWTFGQGTRVEIK
B1 was tested, and the “IC50, in vitro Pf-traversal inhibition assay” value was less than 1 mg/L.
